These results are taken from US20070027089A1 (POSCO, published 2007).

In assay [1] the target is T1, Sub-ST6Gal1 (non-labelled).
T1 peptide: DYEALTLQAKEFQMPKSQE
In words: cell-based or functional assay.

Assay [2] concerns the target T2, f-Sub M (7-methoxycoumarin-4-acetyl-SEVNLDAEFRK(Dnp)-RR-NH2).
T2 peptide: Mca-SEVNLDAEFRK(Dnp)RR-NH2
In words: cell-based or functional assay.

For assay [3], the target named is T3, Substrate M (decamer containing the β-secretase cleavage site of Swedish mutant APP), non-labelled.
T3 peptide: SEVNLDAEFR
In words: cell-based or functional assay.

Assay [4] concerns the target T4, biotin-labeled Substrate W.
T4 construct: also called bio-Sub W; N-terminally biotinylated Substrate W
T4 peptide: Biotin-SEVKMDAEFR
In words: plate assay: HC peptide chemically coupled to plate, bio-Sub W, Str-HRP (FIG. 27). On the procedure:
(§1) Reacti-BindTM maleic anhydride-activated polystyrene plate (Pierce, Ill., USA) was coated with 50 μl of HC peptide (200 μM in distilled water) by chemical coupling for 3 h at room temperature (RT) and washed three times with phosphate buffered saline (PBS) containing 0.05% tween 20 (PBST). The plate was blocked with blocking buffer (0.5% gelatin in PBS) for 1 h at RT. After discarding blocking buffer, biotinylated BACE1 substrates (200 μM) in blocking buffer was applied on the plate and incubated for 2.5 h at RT. Each well was washed three times with PBST. The bound biotinylated BACE1 substrates were detected by incubation with streptavidin-horseradish peroxidase (Str-HRP, 125 mU/ml in blocking buffer) for 2 h at RT. Color reaction was carried out with 50 μl of 3,3′,5,5′-Tetramethylbenzidine Liquid Substrate (Sigma-Aldrich, Mo., USA). After stopping the reaction by addition of an equal volume of 1 N HCl, absorbance at 450 nm was read in an automated ELISA reader (EL 312e, Bio-Tek Instruments, VT, USA). All assays were carried out in duplicate.

For assay [5], the target named is T4, biotin-labeled Substrate W. In words: plate assay: complementary peptide immobilised, biotinylated substrate, streptavidin-HRP.
The target in assay [6] is T5, biotin-labeled Substrate M.
T5 construct: also called bio-Sub M; N-terminally biotinylated Substrate M
T5 peptide: Biotin-SEVNLDAEFR
In words: plate assay: HC peptide chemically coupled to plate, bio-Sub M, Str-HRP, A450 (Table 1). On the procedure: as §1

Assay [7] concerns the target T5, biotin-labeled Substrate M. In words: plate assay: complementary peptide immobilised, biotinylated substrate, streptavidin-HRP.
The target in assay [8] is T6, recombinant human β-secretase (rhBACE1) (human, UniProt P56817 22-457, limits assumed).
T6 construct: Bought
T6 sequence (P56817 22-457 limits assumed): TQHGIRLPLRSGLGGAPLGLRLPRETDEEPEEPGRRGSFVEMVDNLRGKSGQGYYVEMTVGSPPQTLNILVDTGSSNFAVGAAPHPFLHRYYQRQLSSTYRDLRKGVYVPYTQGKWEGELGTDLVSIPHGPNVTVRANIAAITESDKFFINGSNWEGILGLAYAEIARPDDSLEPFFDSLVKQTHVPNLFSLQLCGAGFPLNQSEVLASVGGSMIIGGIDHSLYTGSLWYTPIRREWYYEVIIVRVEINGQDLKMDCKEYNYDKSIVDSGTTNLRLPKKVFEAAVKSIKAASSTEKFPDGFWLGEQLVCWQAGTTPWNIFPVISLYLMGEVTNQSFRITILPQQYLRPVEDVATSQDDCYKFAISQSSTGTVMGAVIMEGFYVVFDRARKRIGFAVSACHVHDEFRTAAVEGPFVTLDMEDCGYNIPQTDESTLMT
The experiment in a line: ELISA, c-Sub M immobilised.

Assay [9] addresses T5, biotin-labeled Substrate M. In words: plate assay: HC peptide chemically coupled to plate, bio-Sub M, Str-HRP, A450 (Table 2). Here is the method:
as §1

Where no end group is shown, it is not given here. The star is where a group is joined. Biotin = O=C1N[C@H]2[C@H](CS[C@H]2CCCCC(=O)*)N1; Dnp = O=[N+]([O-])c1ccc(*)c([N+](=O)[O-])c1; Mca = COc1ccc2c(CC(=O)*)cc(=O)oc2c1

B1: c-Sub M ΔN1C1 (EFCIQIHF) (peptide)
peptide: EFCIQIHF-NH2
notes: also called one amino acid deletion from N-terminal of c-Sub M ΔC1
As for B1, the “percent inhibition of substrate cleavage by rhBACE1 (HPLC), inhibitor/substrate ratio 20” value in [1] turned out to be 40%; in assay [3], 100%. For the same molecule, the results for the “percent inhibition of substrate cleavage by rhBACE1 (HPLC), inhibitor/substrate ratio up to 10” value in assay [1] and in assay [3] were ~10% and 60%, respectively. The “IC50 of inhibition of f-Sub M (10 µM) cleavage by rhBACE1 (FRET)” value in assay [2] was 15 µM. The “fold binding to Sub W relative to c-Sub W” value in assay [4] was 2.5 fold.
With SEFCIQI-NH2 [c-Sub M ΔC3 (SEFCIQI)], the “percent inhibition of f-Sub M cleavage by rhBACE1 (peptide 1 mM, f-Sub M 10 µM)” value in assay [2] is > 90%.
On the same count and under the same terms, as for SEFCIQIH-NH2 [c-Sub M ΔC2 (SEFCIQIH)], the figure is 44%.
FCIQIHF-NH2 [c-Sub M ΔN2C1 (FCIQIHF)]: the “percent of substrate cleavage by β-secretase blocked (HPLC), 25-fold inhibitor” value in assay [1] is 25%; in [3] it was ~60%. Moreover, in assay [4], the binding result is recorded as “binds”.
With SEFCIQ-NH2 [c-Sub M ΔC4 (SEFCIQ)], the “percent inhibition of f-Sub M cleavage by rhBACE1 (peptide 1 mM, f-Sub M 10 µM)” value in [2] was > 90%.

B2: c-Sub W (SEFCIHLHFR) (peptide)
peptide: SEFCIHLHFR-NH2
notes: Hydropathic complementary peptide designed from the antisense strand of Sub W, read 5'->3'
With B2, the binding result in assay [5] and in [6] was “binds” throughout.
With SEFCI-NH2 [c-Sub M ΔC5 (SEFCI)], the “percent inhibition of f-Sub M cleavage by rhBACE1 (peptide 1 mM, f-Sub M 10 µM)” value in assay [2] was > 90%.

B3: Sub W-c (RLHFYLRLKA) (peptide)
peptide: RLHFYLRLKA-NH2
notes: Complementary peptide of Sub W read 3'->5'
For B3, the binding result in assay [6] is “binds”.
Regarding CIQIHF-NH2 (also called c-Sub MΔC1N3; c-Sub ΔN3C1) [c-Sub M ΔN3C1 (CIQIHF)], the “inhibitory activity relative to c-Sub M ΔN1C1 (FRET, f-Sub M 10 µM)” value in [2] is ~0.1 fold. Moreover, in [4], the binding result is given as “binds”.

B4: c-Sub M (SEFCIQIHFR) (peptide)
peptide: SEFCIQIHFR-NH2
notes: Hydropathic complementary peptide designed from the antisense strand of Sub M, read 5'->3'; also called HC peptide c-Sub M
B4: the binding result in assay [7] is “binds”. The binding result in assay [8] is recorded as “no binding”. For the same molecule, in [2], the “percent inhibition of f-Sub M cleavage by rhBACE1 (FRET), peptide 100 fold over substrate” value was ~50% and the “percent inhibition of f-Sub M cleavage by rhBACE1 (peptide 1 mM, f-Sub M 10 µM)” value was determined as 45%. Further, the “fold binding to Sub W relative to c-Sub W” value in assay [4] is 4 fold.
For the molecule SEFCIQIHF-NH2 (also called c-SubM CΔ1) [c-Sub M ΔC1 (SEFCIQIHF)], the binding result in assay [9] is recorded as “binds”. In assay [2], the “percent inhibition of f-Sub M cleavage by rhBACE1 (peptide 1 mM, f-Sub M 10 µM)” value is 90%.
